The values that follow come from patent US20250283065A1, “TRUNCATED POLYPEPTIDES HAVING PROTEIN LIGASE ACTIVITY AND METHODS OF PRODUCTION THEREOF” (NANYANG TECHNOLOGICAL UNIVERSITY, priority 2022, published 2025).

What is called Km is the concentration of substrate that gives half-maximal velocity.

In one series the test system is TrmJ-NAL. The experiment in a line: Conjugation of TrmJ with a fluorescent peptide (SDS PAGE). The series is classed as biochemical. Particulars: 200 nM enzyme, 37° C., after an hour of reaction time. The method, then:
Conjugation of TrmJ: A concentration of 200 nM of OaAEP1b-C247A-4351 was used to conjugate 10 μM of TrmJ-NAL with 50 μM of a short fluorescence peptide synthesized by Genscript: GIGGIYRK-FITC (SEQ ID NO:21). This reaction was carried out in a 20 mM NaH2PO4, pH 6.5 at 37° C. for 1 hour with a final volume of 500 μL. A volume of 50 µL of the reaction was mixed with 5×SDS loading dye after 5, 10, 20, 30 and 60 minutes. The amount of conjugated TrmJ-NAL at all time points was then analyzed using SDS PAGE.
To evaluate OaAEP1b-C247A-Δ351 conjugation capability, a protein of 20 kDa, tRNA methyltransferase, TrmJ were conjugated. TrmJ was modified to include the C-terminal OaAEP1b-C247A-Δ351 preferred tripeptide recognition motif (Asn-Ala-Leu). Using 200 nM of OaAEP1b-C247A-Δ351, TrmJ present in the solution was able to conjugate with a short fluorescence peptide consisting of an N-terminal Gly/Ile (GIGGIYRK-FITC) (SEQ ID NO: 21). The conjugation rate at 37° C. was analyzed using SDS PAGE at […] different time points.

Series [1] can be described thus: Refolding from E. coli inclusion bodies (urea solubilization, dialysis). The format is physicochemical. Conditions: urea solubilization followed by refolding. The method, then: Refolding and purification of constitutively active OaAEP1b-C247A-4351 using dialysis method: With all steps performed at 4° C., protein purification was achieved by resuspending thawed pellets in 30 mL of lysis buffer (100 mM Bis-Tris, pH 6.5, 500 mM NaCl, 10% (v/v) glycerol), sonicating the pellets followed by clearing the lysates by centrifugation at 58,000 g for 45 min. The insoluble fraction was resolubilized in 10 mL of resolubilizing buffer (50 mM Bis-Tris, pH 6.5, 150 mM NaCl, 1 mM EDTA, 50 mM Glycine, 8 M urea) overnight, with agitation. The concentration of denatured protein was determined using nanodrop and diluted to ˜2 mg mL-1 with buffer 1 (50 mM Bis-Tris, pH 6.5, 150 mM NaCl, 500 mM L-Arginine, 1 M urea, 0.25 mM L-Glutathione oxidized, 2.5 mM L-Glutathione reduced). The diluted denatured protein was dialyzed against buffer 2 (50 mM Bis-Tris, pH 6.5, 150 mM NaCl, 200 mM L-Arginine, 0.125 mM L-Glutathione oxidized, 1.25 mM L-Glutathione reduced) for 8 hr, followed by two buffer exchanges with buffer 3 (20 mM Bis-Tris, pH 6.5, 150 mM NaCl), for a duration of 8 hr for each buffer exchange. The refolded proteins were purified by affinity chromatography (HisTrap column, Cytiva), followed by size exclusion chromatography (HiLoad 16/600 Superdex 200, Cytiva). The proteins eluted as monomers during size exclusion purification. […]

Series [2] relates to peptides PIE {EDANS} YNAL and GIK {DABSYL} SIP. The experiment in a line: FRET ligation kinetics assay. The format is biochemical. The method, then: Kinetics assay: The kinetic properties of the peptide ligation of the constitutively active PAL were studied using a FRET assay. Two peptides synthesized by GenScript: PIE {EDANS} YNAL (SEQ ID NO:18) and GIK {DABSYL} SIP (SEQ ID NO:19) were mixed at a molar ratio of 1:3. Upon ligation, the peptide PIE {EDANS} YNGIK {DABSYL} SIP (SEQ ID NO: 20) is produced. 50 nM of PAL enzyme is mixed with various concentrations of the peptide mixture. The EDANS fluorescence signal was measured with an excitation wavelength of 336 nm and an emission wavelength of 490 nm. A reduction in EDANS fluorescence signal occurs upon ligation of the two peptides due to quenching by DABSYL. The variation in fluorescence signal for each substrate mixture concentration was measured after addition of the enzyme to initiate the reaction. The rate of decrease in fluorescence signal during the first 30 seconds after enzyme addition was plotted against the substrate concentration to obtain the Vmax, kcat and KM values for each enzyme.
Next, using a FRET ligation assay, the ligase activity of the truncated OaAEP1b-C247A-Δ351 was compared with its acid-activated zymogen counterpart. Briefly, 50 nM of either enzyme was added to a mixture of two peptides A: PIE (EDANS) YNAL (SEQ ID NO:18) and B: GIK (DABSYL) SIP (SEQ ID NO:19). These two peptides were mixed in a A:B molar ratio of 1:3. Upon ligation, the fluorescence signal emission of the EDANS moiety of A (λem=490 nm) becomes quenched by the DABSYL moiety of B. (FIG. 7A). This assay the ligation rate to be followed between both peptides in real-time, giving access to the kinetic parameters of the truncated enzyme.

The mark [3] stands for this setting: 50 nM enzyme, peptides A:B molar ratio 1:3.

peptides PIE {EDANS} YNAL and GIK {DABSYL} SIP, sequence (as listed by the source): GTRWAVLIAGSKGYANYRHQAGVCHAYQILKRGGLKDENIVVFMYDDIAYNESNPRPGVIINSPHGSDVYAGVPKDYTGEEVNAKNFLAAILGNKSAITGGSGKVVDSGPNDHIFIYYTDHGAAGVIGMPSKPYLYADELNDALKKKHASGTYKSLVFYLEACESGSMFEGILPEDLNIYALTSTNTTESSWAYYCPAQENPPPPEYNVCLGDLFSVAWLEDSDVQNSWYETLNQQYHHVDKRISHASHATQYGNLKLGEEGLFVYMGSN

B1: OaAEP1b-C247A-Δ351: truncated OaAEP1b-C247A construct, residues 352-474 deleted, D351 as C-terminus; constitutively active peptide asparaginyl ligase (protein)
chain: GTRWAVLIAGSKGYANYRHQAGVCHAYQILKRGGLKDENIVVFMYDDIAYNESNPRPGVIINSPHGSDVYAGVPKDYTGEEVNAKNFLAAILGNKSAITGGSGKVVDSGPNDHIFIYYTDHGAAGVIGMPSKPYLYADELNDALKKKHASGTYKSLVFYLEACESGSMFEGILPEDLNIYALTSTNTTESSWCYYCPAQENPPPPEYNVCLGDLFSVAWLEDSDVQNSWYETLNQQYHHVDKRISHASHATQYGNLKLGEEGLFVYMGSNPANDNYTSLDGNALTPSSIVVNQRDAD
For the molecule B1, the “conjugation of TrmJ with GIGGIYRK-FITC” value in the series with TrmJ-NAL is given as “most of TrmJ was labelled with FITC”. Moreover, in series [1], the “behaviour during refolding procedure” value is “could be refolded”. In series [2] (setting [3]), the Km came to 8.16 µM and the Vmax was determined as 6.40 RFU/see. The “ligation activity relative to acid-activated zymogen counterpart (fold less)” value in series [2] (FRET ligation assay) is “about 2 fold”.
